Source: patent publication US10500274B2, “Methods for reducing viral load in HIV-1 infected patients” (CytoDyn Inc., priority 2008, dated 2019)
Read-outs that look alike come from different tables or passages of the source.

Columns and labels:
Assay type in all cases: in vivo, human
CCR5 lymphocytes = test: Phase 1a clinical study: coating of CCR5 cells by PRO 140; settings: single IV 2 mg/kg
Experimental: Individuals were treated in sequential, dose-rising cohorts of 5 subjects (4 active and 1 placebo) each and evaluated for up to 120 days post-treatment. […] Safety assessments consisted of monitoring the following: vital signs (blood pressure, pulse, temperature, etc; hematology (hemoglobin, hematocrit, leukocytes, platelets, etc.); serum chemistries (AST/ALT, alkaline phosphatase, BUN, creatinine, etc.); urinalysis (pH, specific gravity, protein, glucose, leukocytes, etc.); and ECGs (12-lead).
Whole blood specimens were combined separately with the indicated phycoerythrin-labeled anti-CCR5 antibodies or with appropriate isotype-control antibodies. Erythocytes were lysed and leukocytes were stabilized using the ImmunoPrep Reagent System (Beckman Coulter), and the cells were analyzed on a TQ Prep™ flow cytometry workstation (Beckman Coulter). Data were expressed as the percent of CCR5 cells relative to all cells gated in the analysis.

R5 HIV-1 = test: Phase 2 trial of subcutaneous PRO 140: HIV-1 RNA
Experimental: More particularly, dosing comprises 162 mg q1wx3, 324 mg q1wx3, 324 mg q2wx2. Subcutaneous PRO 140 offers a long-acting, self-administered therapy for HIV infection.
Subjects were followed for a total of 58 days for safety and antiviral effects. Entry criteria included: HIV-1 RNA >5,000 copies/mL, R5 virus, […], no antiretroviral therapy <12 weeks.

[1] = test system: CCR5+ and CD4+ lymphocytes
Experimental: CCR5^+ and CD4^+ lymphocytes were measured by flow cytometry.

B1: PRO 140: humanized IgG4,κ anti-CCR5 mAb, humanized version of the murine mAb PA14 (antibody, chains of the INN, looked up, V domains shown)
VH: EVQLVESGGGLVKPGGSLRLSCAASGYTFSNYWIGWVRQAPGKGLEWIGDIYPGGNYIRNNEKFKDKTTLSADTSKNTAYLQMNSLKTEDTAVYYCGSSFGSNYVFAWFTYWGQGTLVTVSS
VL: DIVMTQSPLSLPVTPGEPASISCRSSQRLLSSYGHTYLHWYLQKPGQSPQLLIYEVSNRFSGVPDRFSGSGSGTDFTLKISRVEAEDVGVYYCSQSTHVPLTFGQGTKVEIK
CCR5 lymphocytes
  coating of CCR5 lymphocytes (in words): effectively coats CCR5 lymphocytes without cellular depletion for two weeks
R5 HIV-1; SC 162 mg weekly
  mean reduction in viral load at day 22: 0.75 log 10
R5 HIV-1; SC 162 mg, Days 1, 8, 15
  % subjects with ≥1 log10 drop: 55%
  Max viral load reduction (mean): 0.99 log10
  Max viral load reduction: Range: −0.23 to −1.92 log10
  Mean duration in days ≥1 log10 drop: 14 days
  log10 change in HIV-1 RNA: Day 22 Mean: −0.75 log10
  log10 change in HIV-1 RNA: Day 22 Median: −0.77; p = 0.0072 log10
  maximum log10 change in HIV-1 RNA: Mean: −0.99 log10
  maximum log10 change in HIV-1 RNA: Median: −1.06; p = 0.0093 log10
R5 HIV-1; SC 324 mg bi-weekly
  mean reduction in viral load at day 22: 1.20 log 10
R5 HIV-1; SC 324 mg weekly
  mean reduction in viral load at day 22: 1.51 log 10
R5 HIV-1; SC 324 mg, Days 1, 8, 15
  % subjects with ≥1 log10 drop: 73%
  Max viral load reduction (mean): 1.65 log10
  Max viral load reduction: Range: −0.76 to −2.50 log10
  Mean duration in days ≥1 log10 drop: 20 days
  log10 change in HIV-1 RNA: Day 22 Mean: −1.51 log10
  log10 change in HIV-1 RNA: Day 22 Median: −1.50; p < 0.0001 log10
  maximum log10 change in HIV-1 RNA: Mean: −1.65 log10
  maximum log10 change in HIV-1 RNA: Median: −1.74; p < 0.0001 log10
R5 HIV-1; SC 324 mg, Days 1, 15
  % subjects with ≥1 log10 drop: 67%
  Max viral load reduction (mean): 1.37 log10
  Max viral load reduction: Range: −0.35 to −3.53 log10
  Mean duration in days ≥1 log10 drop: 18 days
  log10 change in HIV-1 RNA: Day 22 Mean: −1.20 log10
  log10 change in HIV-1 RNA: Day 22 Median: −1.03; p < 0.0001 log10
  maximum log10 change in HIV-1 RNA: Mean: −1.37 log10
  maximum log10 change in HIV-1 RNA: Median: −1.16; p = 0.0001 log10
R5 HIV-1; SC 324 mg, days 1, 8 and 15
  continuation of suppression following the last dose: 7 days
[1]; 0.5 mg/kg
  duration of maximal masking or coating of CCR5: 1 week
[1]; 5 mg/kg, Day 8
  average increase in CD4+ lymphocytes: 129 cells/mm^3
  mean change in CD4+ cells over baseline: +129 cells/μL
[1]; 5 mg/kg, Day 15
  mean change in CD4+ cells over baseline: +96 cells/μL
[1]; 5 mg/kg, Day 22
  mean change in CD4+ cells over baseline: +83 cells/μL
[1]; 5 mg/kg, Days 29 and 59
  mean change in CD4+ cells over baseline: < +10 cells/μL
[1]; 0.5 and 2 mg/kg groups
  change in CD4+ cells (in words): No significant change
[1]; 2 and 5 mg/kg (higher dose levels)
  duration of maximal (high-level) coating of CCR5: 2 weeks
[1]; all PRO 140 treatment groups
  duration of significant (p<0.05) coating of CCR5+ lymphocytes: 2-4 weeks
[1]; human, in vivo
  depletion of CCR5+ cells: no depletion of CCR5^+ cells
